Data as given in the supplement of paper PMC10567573.

B1: IFRG15 (parent)
chain: INRADYCPECYPDNPANRSLVLPW

Variants of: B1
Assay: protein stability index of a GFP-peptide fusion (GPS, HEK-293T) (PSI 1-6); higher = more stable
Settings: c terminus: a fixed tail appended
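Note: lentivirally expressed fusions sorted by FACS into six bins by GFP to DsRed ratio, PSI derived from sequencing read proportions per bin multiplied by bin number.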

Compared with INRADYCPECYPDNPANRSAVLPW [L20A], INRADYCPECYPDNPANRSPVLPW [L20P] is lower in protein stability index: 3.02 for the first, 2.31 for the second.

Going from INRADYCPECYPDNPANRSNVLPW [L20N] to INRADYCPECYPDNPANRSQVLPW [L20Q], the protein stability index falls from 2.78 to 2.02.

First: INRADYCPECYPDNPANRSYVLPW [L20Y]
Second: INRADYCPECYPDNPANRSMVLPW [L20M]
The protein stability index of the first is lower: 1.86 for the first, 2.67 for the second.

INRADYCPECYPDNPANRSKVLPW [L20K] and INRADYCPECYPDNPANRSIVLPW [L20I] are the same in protein stability index: 2.27 for the first, 2.27 for the second.

First: INRADYCPECYPDNPANRSWVLPW [L20W]
Second: INRADYCPECYPDNPANRSVVLPW [L20V]
The protein stability index of the first is lower: 1.8 for the first, 2.44 for the second.

Going from INRADYCPECYPDNPANRSEVLPW [L20E] to INRADYCPECYPDNPANRSCVLPW [L20C], the protein stability index falls from 2.9 to 2.06.

First: INRADYCPECYPDNPANRSFVLPW [L20F]
Second: INRADYCPECYPDNPANRSDVLPW [L20D]
The protein stability index of the first is lower: 1.79 for the first, 2.73 for the second.

Going from INRADYCPECYPDNPANRSTVLPW [L20T] to INRADYCPECYPDNPANRSHVLPW [L20H], the protein stability index falls from 2.57 to 2.4.

Compared with INRADYCPECYPDNPANRSSVLPW [L20S], INRADYCPECYPDNPANRSGVLPW [L20G] is higher in protein stability index: 2.28 for the first, 2.48 for the second.

First: INRADYCPECYPDNPANRSRVLPW [L20R]
Second: INRADYCPECYPDNPANRRLVLPW [S19R]
The protein stability index of the first is higher: 2.13 for the first, 1.59 for the second.

Compared with INRADYCPECYPDNPANRQLVLPW [S19Q], INRADYCPECYPDNPANRVLVLPW [S19V] is lower in protein stability index: 2 for the first, 1.41 for the second.

Compared with INRADYCPECYPDNPANRCLVLPW [S19C], INRADYCPECYPDNPANRILVLPW [S19I] is lower in protein stability index: 1.81 for the first, 1.72 for the second.

First: INRADYCPECYPDNPANRALVLPW [S19A]
Second: INRADYCPECYPDNPANRDLVLPW [S19D]
The protein stability index of the first is lower: 2.16 for the first, 2.3 for the second.

Going from INRADYCPECYPDNPANRPLVLPW [S19P] to INRADYCPECYPDNPANRKLVLPW [S19K], the protein stability index falls from 2.4 to 2.14.

Compared with INRADYCPECYPDNPANRELVLPW [S19E], INRADYCPECYPDNPANRGLVLPW [S19G] is lower in protein stability index: 2.22 for the first, 1.82 for the second.

Compared with INRADYCPECYPDNPANRYLVLPW [S19Y], INRADYCPECYPDNPANRHLVLPW [S19H] is higher in protein stability index: 1.88 for the first, 2.07 for the second.

Going from INRADYCPECYPDNPANRFLVLPW [S19F] to INRADYCPECYPDNPANRTLVLPW [S19T], the protein stability index rises from 1.27 to 1.77.

First: INRADYCPECYPDNPANRLLVLPW [S19L]
Second: INRADYCPECYPDNPANRMLVLPW [S19M]
The protein stability index of the first is higher: 2.16 for the first, 1.65 for the second.

Compared with INRADYCPECYPDNPANRNLVLPW [S19N], INRADYCPECYPDNPANRWLVLPW [S19W] is higher in protein stability index: 1.8 for the first, 1.99 for the second.

Going from INRADYCPECYPDNPANRSLDLPW [V21D] to INRADYCPECYPDNPANRSLKLPW [V21K], the protein stability index falls from 2.43 to 1.98.

Compared with INRADYCPECYPDNPANRSLALPW [V21A], INRADYCPECYPDNPANRSLELPW [V21E] is lower in protein stability index: 2.54 for the first, 2.29 for the second.

Compared with INRADYCPECYPDNPANRSLCLPW [V21C], INRADYCPECYPDNPANRSLHLPW [V21H] is higher in protein stability index: 1.82 for the first, 1.84 for the second.

Compared with INRADYCPECYPDNPANRSLGLPW [V21G], INRADYCPECYPDNPANRSLFLPW [V21F] is lower in protein stability index: 2.69 for the first, 1.54 for the second.

First: INRADYCPECYPDNPANRSLLLPW [V21L]
Second: INRADYCPECYPDNPANRSLILPW [V21I]
The protein stability index of the first is higher: 2.53 for the first, 1.97 for the second.

Compared with INRADYCPECYPDNPAYRSLVLPW [N17Y], INRADYCPECYPDNPADRSLVLPW [N17D] is higher in protein stability index: 1.74 for the first, 2.1 for the second.

First: INRADYCPECYPDNPASRSLVLPW [N17S]
Second: INRADYCPECYPDNPAPRSLVLPW [N17P]
The protein stability index of the first is higher: 2.21 for the first, 1.89 for the second.

Compared with INRADYCPECYPDNPALRSLVLPW [N17L], INRADYCPECYPDNPAERSLVLPW [N17E] is higher in protein stability index: 1.68 for the first, 2.14 for the second.

Compared with INRADYCPECYPDNPAKRSLVLPW [N17K], INRADYCPECYPDNPAWRSLVLPW [N17W] is lower in protein stability index: 1.8 for the first, 1.6 for the second.

Compared with INRADYCPECYPDNPACRSLVLPW [N17C], INRADYCPECYPDNPAHRSLVLPW [N17H] is higher in protein stability index: 2.03 for the first, 2.04 for the second.

Going from INRADYCPECYPDNPAARSLVLPW [N17A] to INRADYCPECYPDNPAFRSLVLPW [N17F], the protein stability index falls from 2.3 to 1.54.

First: INRADYCPECYPDNPAGRSLVLPW [N17G]
Second: INRADYCPECYPDNPAQRSLVLPW [N17Q]
The protein stability index of the first is higher: 2.53 for the first, 1.79 for the second.

Going from INRADYCPECYPDNPAIRSLVLPW [N17I] to INRADYCPECYPDNPARRSLVLPW [N17R], the protein stability index falls from 2.25 to 1.51.

First: INRADYCPECYPDNPAMRSLVLPW [N17M]
Second: INRADYCPECYPDNPAVRSLVLPW [N17V]
The protein stability index of the first is higher: 1.91 for the first, 1.79 for the second.

First: INRADYCPECYPDNPATRSLVLPW [N17T]
Second: INRADYCPECYPDNPANMSLVLPW [R18M]
The protein stability index of the first is higher: 2.53 for the first, 2.06 for the second.

Going from INRADYCPECYPDNPANGSLVLPW [R18G] to INRADYCPECYPDNPANESLVLPW [R18E], the protein stability index rises from 1.99 to 2.13.

First: INRADYCPECYPDNPANNSLVLPW [R18N]
Second: INRADYCPECYPDNPANISLVLPW [R18I]
The protein stability index of the first is higher: 2.22 for the first, 1.82 for the second.

First: INRADYCPECYPDNPANSSLVLPW [R18S]
Second: INRADYCPECYPDNPANCSLVLPW [R18C]
The protein stability index of the first is higher: 2.27 for the first, 1.81 for the second.

Compared with INRADYCPECYPDNPANYSLVLPW [R18Y], INRADYCPECYPDNPANWSLVLPW [R18W] is higher in protein stability index: 1.44 for the first, 1.69 for the second.

Going from INRADYCPECYPDNPANPSLVLPW [R18P] to INRADYCPECYPDNPANKSLVLPW [R18K], the protein stability index rises from 2.38 to 2.83.

Going from INRADYCPECYPDNPANDSLVLPW [R18D] to INRADYCPECYPDNPANASLVLPW [R18A], the protein stability index falls from 2.88 to 2.17.

First: INRADYCPECYPDNPANTSLVLPW [R18T]
Second: INRADYCPECYPDNPANVSLVLPW [R18V]
The protein stability index of the first is lower: 1.35 for the first, 1.9 for the second.

First: INRADYCPECYPDNPANFSLVLPW [R18F]
Second: INRADYCPECYPDNPANQSLVLPW [R18Q]
The protein stability index of the first is higher: 2.32 for the first, 1.99 for the second.

First: INRADYCPECYPDNPANLSLVLPW [R18L]
Second: INRADYCPECYPDNPANHSLVLPW [R18H]
The protein stability index of the first is lower: 1.83 for the first, 2.17 for the second.

First: INRADYCPECYPDNPRNRSLVLPW [A16R]
Second: INRADYCPECYPDNPPNRSLVLPW [A16P]
The protein stability index of the first is lower: 1.67 for the first, 2.15 for the second.

Going from INRADYCPECYPDNPYNRSLVLPW [A16Y] to INRADYCPECYPDNPTNRSLVLPW [A16T], the protein stability index falls from 2.67 to 2.06.

INRADYCPECYPDNPWNRSLVLPW [A16W] and INRADYCPECYPDNPVNRSLVLPW [A16V] are the same in protein stability index: 1.85 for the first, 1.85 for the second.

Going from INRADYCPECYPDNPSNRSLVLPW [A16S] to INRADYCPECYPDNPQNRSLVLPW [A16Q], the protein stability index falls from 2.42 to 2.23.
